Among the data in US20260297187 (published 2026) are Kd values, retold here.

Sequences and labels used below:
T1: CEACAM1-his (human)
T1 chain: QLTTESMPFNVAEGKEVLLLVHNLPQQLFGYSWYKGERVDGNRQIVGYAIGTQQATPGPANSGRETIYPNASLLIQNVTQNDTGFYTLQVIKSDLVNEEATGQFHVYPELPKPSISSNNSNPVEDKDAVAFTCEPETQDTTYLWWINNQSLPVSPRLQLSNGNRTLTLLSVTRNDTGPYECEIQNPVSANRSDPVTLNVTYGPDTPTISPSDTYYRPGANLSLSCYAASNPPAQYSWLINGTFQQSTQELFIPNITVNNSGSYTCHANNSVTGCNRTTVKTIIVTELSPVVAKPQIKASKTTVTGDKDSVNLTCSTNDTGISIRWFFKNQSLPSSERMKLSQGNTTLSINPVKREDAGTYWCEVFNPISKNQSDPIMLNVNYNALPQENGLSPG

B1: 4D10.G4 (antibody, V domains shown)
VH: EVQLQQSGPELVKPGASVKMSCKASGYTFSSYVIHWVRQKPGQGLEWIGYFNPYNNGTNYNENFKGKATLTSGKSSSTAYMELSSLTSEDSAVYYCARYYYASGSLYFDYWGQGTTLTVSS
VL: EIVLTQSPAIATASLGQKVTITCSASSSVSYMHWYQQKSGTSPKPWIYEISKLASGVPTRFSGSGSGTSYSLTISSMEAEDAAIYYCQQWNYPLITFGAGTKLELK
B2: h4D10.G4.H4(N56Q Y100F)L2(S28F S51M) (antibody, V domains shown)
VH: QVQLVQSGAEVKKPGASVKVSCKASGYTFSSYVIHWVRQAPGQGLEWMGYFNPYNQGTNYNENFKGRVTMTADTSTSTVYMELSSLRSEDTAVYYCARYFYASGSLYFDYWGQGTTVTVSS
VL: DIQMTQSPSTLSASVGDRVTITCSASSFVSYMHWYQQKPGKAPKPLIYEIMKLASGVPSRFSGSGSGTEFTLTISSLQPDDAATYYCQQWNYPLITFGGGTKVEIK
B3: h4D10.G4.H4(N56Q Y100F)L2(S28H) (antibody, V domains shown)
VH: QVQLVQSGAEVKKPGASVKVSCKASGYTFSSYVIHWVRQAPGQGLEWMGYFNPYNQGTNYNENFKGRVTMTADTSTSTVYMELSSLRSEDTAVYYCARYFYASGSLYFDYWGQGTTVTVSS
VL: DIQMTQSPSTLSASVGDRVTITCSASSHVSYMHWYQQKPGKAPKPLIYEISKLASGVPSRFSGSGSGTEFTLTISSLQPDDAATYYCQQWNYPLITFGGGTKVEIK
B4: h4D10.G4.H4(N56Q Y100F)L2(K52R) (antibody, V domains shown)
VH: QVQLVQSGAEVKKPGASVKVSCKASGYTFSSYVIHWVRQAPGQGLEWMGYFNPYNQGTNYNENFKGRVTMTADTSTSTVYMELSSLRSEDTAVYYCARYFYASGSLYFDYWGQGTTVTVSS
VL: DIQMTQSPSTLSASVGDRVTITCSASSSVSYMHWYQQKPGKAPKPLIYEISRLASGVPSRFSGSGSGTEFTLTISSLQPDDAATYYCQQWNYPLITFGGGTKVEIK
B5: h4D10.G4.H4(N56Q Y100F)L2(S28F) (antibody, V domains shown)
VH: QVQLVQSGAEVKKPGASVKVSCKASGYTFSSYVIHWVRQAPGQGLEWMGYFNPYNQGTNYNENFKGRVTMTADTSTSTVYMELSSLRSEDTAVYYCARYFYASGSLYFDYWGQGTTVTVSS
VL: DIQMTQSPSTLSASVGDRVTITCSASSFVSYMHWYQQKPGKAPKPLIYEISKLASGVPSRFSGSGSGTEFTLTISSLQPDDAATYYCQQWNYPLITFGGGTKVEIK
B6: h4D10.G4.H4(N56Q Y100F)L2(S51M) (antibody, V domains shown)
VH: QVQLVQSGAEVKKPGASVKVSCKASGYTFSSYVIHWVRQAPGQGLEWMGYFNPYNQGTNYNENFKGRVTMTADTSTSTVYMELSSLRSEDTAVYYCARYFYASGSLYFDYWGQGTTVTVSS
VL: DIQMTQSPSTLSASVGDRVTITCSASSSVSYMHWYQQKPGKAPKPLIYEIMKLASGVPSRFSGSGSGTEFTLTISSLQPDDAATYYCQQWNYPLITFGGGTKVEIK
B7: h4D10.G4.H4(H35M N56Q Y100F)L2 (antibody, V domains shown)
VH: QVQLVQSGAEVKKPGASVKVSCKASGYTFSSYVIMWVRQAPGQGLEWMGYFNPYNQGTNYNENFKGRVTMTADTSTSTVYMELSSLRSEDTAVYYCARYFYASGSLYFDYWGQGTTVTVSS
VL: DIQMTQSPSTLSASVGDRVTITCSASSSVSYMHWYQQKPGKAPKPLIYEISKLASGVPSRFSGSGSGTEFTLTISSLQPDDAATYYCQQWNYPLITFGGGTKVEIK
B8: h4D10.G4.H4(N56Q Y100F)L2(S28F K52R) (antibody, V domains shown)
VH: QVQLVQSGAEVKKPGASVKVSCKASGYTFSSYVIHWVRQAPGQGLEWMGYFNPYNQGTNYNENFKGRVTMTADTSTSTVYMELSSLRSEDTAVYYCARYFYASGSLYFDYWGQGTTVTVSS
VL: DIQMTQSPSTLSASVGDRVTITCSASSFVSYMHWYQQKPGKAPKPLIYEISRLASGVPSRFSGSGSGTEFTLTISSLQPDDAATYYCQQWNYPLITFGGGTKVEIK

The target of the first test is T1, CEACAM1-his. The test can be described thus: BLI. In general terms: Biolayer interferometry detects binding as a change in optical thickness at a sensor tip.
As a reminder, the Kd is the concentration at which binding is half-saturated. Read a low Kd as a tighter complex. The molecule B1 gave a Kd of 1.89 nM.

The next test has as its target T1, CEACAM1-his. The test can be described thus: BLI. The source holds these as a separate data set.
Molecule B1 gave a dissociation constant Kd of 1.82 nM.

A further test deals with T1, CEACAM1-his. The test can be described thus: BLI. The source holds these as a separate data set.
As to B2, the Kd was determined as 0.362 nM.

Consider B3, for which binding was put at a Kd of 0.956 nM. Turning to B4, binding was put at a Kd of 0.801 nM.

B5 returned a Kd of 0.3 nM.

The molecule B6 came in with an equilibrium dissociation constant (Kd) of 0.784 nM. For the molecule B7, the dissociation constant Kd came to 0.394 nM. For the molecule B8, the Kd worked out at 0.268 nM.
